Measured values reported in patent US20260108496A1, “METHODS FOR REPROGRAMING EXHAUSTED T CELLS AND BOOSTING IMMUNE CHECKPOINT BLOCKADE THERAPY FOR CANCER” (Ohio State Innovation Foundation, priority 2022, published 2026).

Assays:
adult CD8+ T cells = assay: chronic TCR plus TGFβ1 stimulation of adult CD8+ T cells from healthy blood donors; format: cell-based, human
Experimental: Isolated adult PBMCs were stained on day 0 for cell sorting of naïve CD8+ T cells (viable CD3+ CD8+ CCR7+ CD45RO−) and viable CD3− PBMCs using the Sony MA900 sorter. The cells were seeded into 96-well U-bottom plate (˜5,000 naïve T cells+45,000 CD3− cells per well) on day 0 with 30 ng/ml of purified anti-human CD3, in complete T cell medium as described above. On day 4, the wells were transferred to a 96-well flat-bottom plate coated with anti-human CD3 and CD28 antibodies as described above, and stimulation was continued for an additional three days. On day 7, the cells were returned to culture with continuous stimulation using soluble anti-CD3 (30 ng/ml) or repeated plate-bound anti-CD3 stimulation through day 28. Media was replenished every 2-3 days. Treatments were added to the media as described above for CBMCs experiments.

human CD8+ T cells [1] = assay: chronic TCR stimulation of human CBMCs in the presence of TGFβ1; format: cell-based
Experimental: For “Weak TCR” stimulation, 30 ng/ml of purified monoclonal anti-human CD3 (clone: OKT3; BioLegend) was continuously added onto the seeded CBMCs to provide TCR stimulation plus natural costimulation via CD80/CD86 on Fc-expressing CBMCs that survive in the first few days. For “Strong TCR” stimulation setting, flat-bottom plates were coated with purified monoclonal anti-human CD3 (5 ug/ml) and anti-human CD28 (1 ug/ml) (clone: CD28.2; BioLegend) at 4° C. overnight, then CMBCs were isolated and seeded in complete T cell medium as described above on day 0. On day 7, viable CD8+ T cells were FACS-purified using the Sony MA900 cell sorter. Purified CD8+ T cells were then continuously stimulated in plates coated with anti-CD3 only (5 ug/ml). Media was replenished every 2-3 days, and cells were incubated at 37 C and 5% CO2 throughout the duration of the experiment. Human TGFβ1 (5 ng/ml, Peprotech) was added to the media starting on day 7. Treatment with RepSox (25 μM) and SB4 (10 μM) (MedChemExpress LLC) or vehicle control (DMSO, ThermoFisher) were added to the media starting on day 14 or 21. Vitamin C (100 μM, MedChemExpress LLC) was added to the media starting on day 21. For the acute TCR stimulation condition, anti-CD3 was no longer added to the media starting on day 7. […]

P14 CD8 T cells = assay: in-vitro co-culture of P14 CD8 T cells with CT2A-gp33 tumor cells (Example 1); format: cell-based, mouse; details: P14 cells
Text: To study their epigenetic (re)programming, we developed a novel in-vitro model of CD8 T cell exhaustion. First, we optimized conditions for in-vitro co-culture of gp33-expressing murine brain tumor cells (CT2A-gp33) and TCR transgenic gp33-specific CD8 T cells (P14 cells). We were able to enforce differentiation of anti-tumor CD8 T cells under their persistent TCR stimulation by repeated exposure to the tumor antigen and tumor-derived factors, such as TGFβ1. […] However, with prolonged exposure to the tumor antigen, the effector CD8 T cells progressively lose cytokine production and tumor killing activity (FIGS. 8A, 8B, and 8C).
To assess the impact of TGFβ1 signaling on the progression of CD8 T cells toward dysfunction, we treated co-cultures with TGFβ1 or RepSox (also known as E-616452) (2-(3-(6-Methylpyridine-2-yl)-1H-pyrazol-4-yl)-1,5-naphthyridine) as shown in the formula: […]
RepSox is a potent selective inhibitor of the TGFβ type 1 receptor (ALK5)—for 11 days after effector differentiation was complete (day 6).
We also examined the impact of BMP-2/4 signaling on RepSox-treated P14 CD8 T cells. […] Taken together, our findings indicate that TGFβ1-signaling not only accelerates the development of T cell dysfunction, but also maintains silencing of lymphoid homing markers on CD8 T cells. Importantly, our findings support the feasibility of using this novel in-vitro model as a tractable tool that can guide our in-vivo work by providing first-line mechanistic studies.

human CD8+ T cells [2] = assay: whole-genome bisulfite sequencing of human CD8+ T cells; format: cell-based; details: combined with RepSox
Experimental: Human CD8+ T cells were sorted on days 0 (naïve), 7, and 28, and genomic DNA was extracted and bisulfite-treated to convert unmethylated cytosine to uracil residues using the EZ DNA Methylation-Direct Kit (Zymo). DNA libraries were prepared using Swift Accel-NGS® D Methyl-Seq DNA Library Kit according to the manufacturer's protocol. The libraries were purified by the AMPureXP Beads followed by QC using Qubit method, and the purified DNA was captured on an Illumina flow cell for cluster generation. Libraries were sequenced on the NovaSeq-S2 platform following the manufacturer's protocols. Sequencing data were aligned to the Hg38 genome using BSMAP. Adapter were trimmed from FASTQ sequences (trimglore) and mapped to the hg38 genome using the BSMAP v. 2.74 software. CpGs were extracted by the methratio.py in the BSMAP package. Differential analysis of CpG methylation among the datasets was determined with a Bayesian hierarchical model to detect regional methylation differences with at least three CpG site. Differentially methylated regions (DMRs) were identified using Bioconductor package DSS and custom R scripts with a threshold of 30% change in methylation ratio and P-value <0.01 with at least 10 reads per CpG site as a cutoff.

Dysf. CD8+ T cells = assay: reprogramming treatment of Dysf. (chronic TCR plus TGFβ1) human CD8+ T cells; format: cell-based; details: sorted most dysfunctional subset, added to RepSox
Experimental: On day 7, viable CD8+ T cells were FACS-purified using the Sony MA900 cell sorter. Purified CD8+ T cells were then continuously stimulated in plates coated with anti-CD3 only (5 ug/ml). Media was replenished every 2-3 days, and cells were incubated at 37 C and 5% CO2 throughout the duration of the experiment. Human TGFβ1 (5 ng/ml, Peprotech) was added to the media starting on day 7. Treatment with RepSox (25 μM) and SB4 (10 μM) (MedChemExpress LLC) or vehicle control (DMSO, ThermoFisher) were added to the media starting on day 14 or 21. Vitamin C (100 μM, MedChemExpress LLC) was added to the media starting on day 21. For the acute TCR stimulation condition, anti-CD3 was no longer added to the media starting on day 7. For recovery experiments in FIG. 16 and FIGS. 22 and 26, CD8+ T cells were rested from TCR stimulation and TGFβ1 starting on day 28 for 7-14 days in T cell media containing recombinant human IL-15 only (10 ng/ml).
On days 7, 14, 21, and 28 (and day 35 and 42 for recovery experiments), human CBMCs were stimulated with PMA/Ionomycin (Cell Stimulation Cocktail plus protein transport inhibitors, eBioscience) for 3 hours at 37° C., 5% CO2. Incubation was followed immediately by antibody intracellular staining for flow cytometry.
Human CBMCs from ex vivo stimulation experiments (acute or chronic TCR, and chronic TCR+TGFβ1) were labeled with 5(6)-Carboxyfluorescein diacetate N-succinimidyl ester (CFSE) (1 μM, Sigma) by staining in PBS for 7 minutes at room temperature, followed by quenching with 20% FBS. Proliferation was tracked on days 35 and 42 by assessing CFSE fluorescence via flow cytometry. Each peak of CFSE fluorescence signal represents one cell division cycle.

human CD8 T cells = assay: treatment of human CD8 T cells with BMP ligands under chronic strong TCR stimulation; format: cell-based; details: for expression levels of terminal exhaustion-associated molecules (CD39, CD101, CD103): day 21; for frequencies of IFNγ-producing CD8 T cells: days 14 and 21
Text: BMP ligands can signal through type 1 (BMPR1, ACVR1) or type 2 receptors (BMPR2, ACVR2), which typically form heterotetramers upon ligand binding. Once heterotetramers are activated by ligands, they phosphorylate SMAD1/5/8 that binds to SMAD4 and translocates to nucleus and bind to target genes.

[3] = tested on: SMAD1/5/8 phosphorylation; details: cited from earlier work
[4] = adult naïve CD8+ T cells, post-effector exposure

## TGFβ1: Human TGFβ1 cytokine (5 ng/ml, Peprotech)
Adult CD8+ T cells; [4]
  expression of dysfunction-associated markers: increased expression
  function of chronically stimulated adult CD8+ T cells: induced functional impairment
Adult CD8+ T cells; adult polyclonal effector memory (CD45RO+ CCR7−) CD8+ T cells
  polyfunctionality: did not impact
Adult CD8+ T cells; adult polyclonal effector memory CD8+ T cells
  CD103 expression: significant upregulation
Human CD8+ T cells [1]; TGFβ1 started after effector differentiation (day 7-28)
  effector functions in chronically stimulated T cells: significantly reduced
Human CD8+ T cells [1]; strong TCR stimulation
  survival of chronically stimulated CD8+ T cells: supported the survival
P14 CD8 T cells; persistent treatment for 11 days from day 6 of co-culture
  production of IFNγ and TNFα: accelerated the impairment
P14 CD8 T cells; persistent treatment from day 6
  expression of T-bet and Granzyme B: repressed expression

## O=C1O[C@H]([C@@H](O)CO)C(O)=C1O [vitamin C]
Human CD8+ T cells [2]
  DNA methylation patterns in Dysf. CD8+ T cells: more pronounced
Dysf. CD8+ T cells
  effector cytokine production: further enhanced

B1: BMP4: natural BMP ligand, bone morphogenic protein 4 (protein, UniProt P12644 293-408, looked up)
Bone morphogenetic protein 4: SPKHHSQRARKKNKNCRRHSLYVDFSDVGWNDWIVAPPGYQAFYCHGDCPFPLADHLNSTNHAIVQTLVNSVNSSIPKACCVPTELSAISMLYLDEYDKVVLKNYQEMVVEGCGCR
modifications: Bone morphogenetic protein 4
Human CD8 T cells; chronic strong TCR stimulation
  numbers of chronically stimulated human CD8 T cells: preserved significantly higher numbers
Human CD8 T cells
  expression levels of terminal exhaustion-associated molecules (CD39, CD101, CD103): downregulated
  frequencies of IFNγ-producing CD8 T cells: significantly higher frequencies
[3]
  activation of SMAD1/5/8 phosphorylation: strong

B2: BMP6: natural BMP ligand (protein, UniProt P22004 375-513, looked up)
Bone morphogenetic protein 6: SASSRRRQQSRNRSTQSQDVARVSSASDYNSSELKTACRKHELYVSFQDLGWQDWIIAPKGYAANYCDGECSFPLNAHMNATNHAIVQTLVHLMNPEYVPKPCCAPTKLNAISVLYFDDNSNVILKKYRNMVVRACGCH
modifications: Bone morphogenetic protein 6
notes: natural BMP ligand
Human CD8 T cells
  expression levels of terminal exhaustion-associated molecules (CD39, CD101, CD103): downregulated
[3]
  activation of SMAD1/5/8 phosphorylation: strong

B3: BMP10: natural BMP ligand (protein, UniProt O95393 317-424, looked up)
Bone morphogenetic protein 10: NAKGNYCKRTPLYIDFKEIGWDSWIIAPPGYEAYECRGVCNYPLAEHLTPTKHAIIQALVHLKNSQKASKACCVPTKLEPISILYLDKGVVTYKFKYEGMAVSECGCR
Human CD8 T cells
  expression levels of terminal exhaustion-associated molecules (CD39, CD101, CD103): downregulated
  frequencies of IFNγ-producing CD8 T cells: significantly higher frequencies
[3]
  activation of SMAD1/5/8 phosphorylation: medium or weak

B4: BMP12: BMP ligand (protein, UniProt Q7Z4P5 322-450, looked up)
Growth/differentiation factor …: TALAGTRTAQGSGGGAGRGHGRRGRSRCSRKPLHVDFKELGWDDWIIAPLDYEAYHCEGLCDFPLRSHLEPTNHAIIQTLLNSMAPDAAPASCCVPARLSPISILYIDAANNVVYKQYEDMVVEACGCR
[3]
  activation of SMAD1/5/8 phosphorylation: medium or weak

B5: BMP14: BMP ligand (protein, UniProt P43026 382-501, looked up)
Growth/differentiation factor …: APLATRQGKRPSKNLKARCSRKALHVNFKDMGWDDWIIAPLEYEAFHCEGLCEFPLRSHLEPTNHAVIQTLMNSMDPESTPPTCCVPTRLSPISILFIDSANNVVYKQYEDMVVESCGCR
modifications: Growth/differentiation factor 5
notes: BMP ligand
[3]
  activation of SMAD1/5/8 phosphorylation: medium or weak
